Assay results from paper PMC5331220, “Oxidation of F-actin controls the terminal steps of cytokinesis” (Nature Communications, 2017).
Changes are numbered by the printed parent chain. Numbers in names are those of the source. Where “and” joins values, the source holds several entries; their conditions need not be identical. Identical values can stand only once.

T1: His-tagged MICAL1^FAD-CH-LIM (MICAL1^1–843) (human, UniProt Q8TDZ2 1-843)
T1 construct: MICAL1, human, amino acids 1-843 (monooxygenase/FAD, CH and LIM domains); also called 6xHis-MICAL1^FAD-CH-LIM; source: E. coli BL21-AI, purified (Ni-NTA magnetic agarose beads)
T1 sequence (looked up): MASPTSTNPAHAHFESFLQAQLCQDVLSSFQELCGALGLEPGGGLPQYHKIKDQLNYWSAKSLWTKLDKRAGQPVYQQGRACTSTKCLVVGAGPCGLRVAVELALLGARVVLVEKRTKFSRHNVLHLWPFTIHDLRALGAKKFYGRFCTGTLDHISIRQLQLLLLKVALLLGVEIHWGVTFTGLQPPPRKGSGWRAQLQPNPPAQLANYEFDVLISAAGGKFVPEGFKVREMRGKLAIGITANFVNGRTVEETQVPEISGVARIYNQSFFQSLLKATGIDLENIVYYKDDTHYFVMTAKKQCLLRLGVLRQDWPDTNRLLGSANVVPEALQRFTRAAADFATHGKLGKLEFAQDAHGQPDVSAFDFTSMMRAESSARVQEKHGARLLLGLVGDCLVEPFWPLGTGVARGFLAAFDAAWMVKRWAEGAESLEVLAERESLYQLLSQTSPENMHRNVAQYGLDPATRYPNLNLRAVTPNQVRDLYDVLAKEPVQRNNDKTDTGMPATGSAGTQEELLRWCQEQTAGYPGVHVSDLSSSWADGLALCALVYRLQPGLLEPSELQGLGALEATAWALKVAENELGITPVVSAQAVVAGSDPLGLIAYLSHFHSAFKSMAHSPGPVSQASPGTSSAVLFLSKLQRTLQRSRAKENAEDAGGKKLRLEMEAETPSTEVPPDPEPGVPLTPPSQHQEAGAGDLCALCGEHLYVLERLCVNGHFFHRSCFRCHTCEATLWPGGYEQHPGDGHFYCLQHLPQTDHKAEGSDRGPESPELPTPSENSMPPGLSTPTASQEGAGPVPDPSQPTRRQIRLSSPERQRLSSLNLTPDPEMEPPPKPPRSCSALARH

T2: MICAL1^879-1067 wild-type (human, UniProt Q8TDZ2 879-1067)
T2 construct: source: E. coli BL21-CodonPlus-RILP or BL21-Gold, purified (HisTrap, rTEV cleavage, Superdex-75); not shown: His6, N-terminal, cleaved
T2 sequence (looked up): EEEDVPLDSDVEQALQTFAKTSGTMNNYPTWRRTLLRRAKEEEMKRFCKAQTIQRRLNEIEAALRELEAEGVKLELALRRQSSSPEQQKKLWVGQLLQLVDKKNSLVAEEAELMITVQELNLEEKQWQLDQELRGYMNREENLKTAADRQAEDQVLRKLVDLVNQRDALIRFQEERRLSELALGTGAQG

B1: GST-tagged MICAL1^879–1067 (domain or fragment, human, UniProt Q8TDZ2 879-1067, looked up)
chain: T2 sequence (looked up)
notes: source: E. coli BL21-AI, purified (glutathione Sepharose 4B)
B2: Rab35^1-199 (domain or fragment)
chain: not shown
notes: Rab35 GTPase, human, residues 1-199; Loaded with GppNHp; also called GppNHp-Rab35 1-199; source: E. coli BL21-CodonPlus-RILP or BL21-Gold, purified (HisTrap, rTEV cleavage, Superdex-75); not shown: His6, N-terminal, cleaved
B3: MICAL1^918-1067 wild-type (C-terminal domain of human MICAL1) (domain or fragment, UniProt Q8TDZ2 918-1067, looked up)
chain: KEEEMKRFCKAQTIQRRLNEIEAALRELEAEGVKLELALRRQSSSPEQQKKLWVGQLLQLVDKKNSLVAEEAELMITVQELNLEEKQWQLDQELRGYMNREENLKTAADRQAEDQVLRKLVDLVNQRDALIRFQEERRLSELALGTGAQG
notes: also called C-term MICAL1; source: E. coli BL21-CodonPlus-RILP or BL21-Gold, purified (HisTrap, rTEV cleavage, Superdex-75); not shown: His6, N-terminal, cleaved
B4: MICAL1^918-1067 S1 mutant (E946K, V950D, E953K, V971E, L975R, V978E) (domain or fragment, human, UniProt Q8TDZ2 918-1067, looked up)
chain: B3 chain with E29K, V33D, E36K, V54E, L58R, V61E
notes: the supplement and the results print V978E; source: E. coli BL21-CodonPlus-RILP or BL21-Gold, purified (HisTrap, rTEV cleavage, Superdex-75); not shown: His6, N-terminal, cleaved
B5: Rab35^1-175 (domain or fragment)
chain: not shown
notes: Rab35 GTPase, human, residues 1-175 (lacks the last 26 aa); Loaded with GppNHp (assay a1) or with GDP (assay a2); also called GppNHp-Rab35 1-175; GDP-Rab35 1-175; source: E. coli BL21-CodonPlus-RILP or BL21-Gold, purified (HisTrap, rTEV cleavage, Superdex-75); not shown: His6, N-terminal, cleaved

Tests used:
Details in all cases: both partners purified
[1] = biological target: T1, His-tagged MICAL1^FAD-CH-LIM …; assay: pull-down; GST-MICAL1^879–1067 on glutathione Sepharose 4B beads, incubated with 6xHis-MICAL1^FAD-CH-LIM alone or with increasing amounts of Rab35-GppNHp in 50 mM Tris pH 8, 150 mM NaCl, 2 mM MgCl2, 1 mM DTT; anti-6xHis and anti-Rab35 blots
[2] = biological target: B3; assay: ITC; MicroCal ITC-200, 10 °C; C-terminal MICAL1 domain 60 μM in the cell, GppNHp-Rab35 480 μM added in 2 μl aliquots; 50 mM Tris pH 8, 150 mM NaCl, 2 mM MgCl2, 2 mM TCEP, 5% glycerol; one-site model
[3] = biological target: B5; assay: as above
[4] = biological target: B2; assay: as above
[5] = biological target: T2, MICAL1^879-1067 wild-type; assay: as above
[6] = biological target: B4; assay: as above

Binder: B1
- binding result [1]: binds

Binder: B2
- stoichiometry N [2]: 1.07

Binder: B3
- Kd [3]: 8.3 µM and 4.5 µM
- Kd [4]: 4.5 µM and 5 µM and 4.8 µM

Binder: B4
- Kd [3]: 7.9 µM and 6.4 µM and 7.2 µM

Binder: B5
- stoichiometry N [2]: 1.09
- Kd [5]: 13 µM
- stoichiometry N [5]: 0.8
- stoichiometry N [6]: 0.95
